Where a chain is given by its changes, count along the chain named.
Tests used:
Assay in all cases: EMSA
Details in all cases: 10 mM Tris pH 8, 150 mM KCl, 500 nM EDTA, 0.1% Triton X-100, 12.5% glycerol, 1 mM DTT, 1 ug poly(dI-dC), 4 C, 30 min
[1] = target: T1, HetR S130D S130D (Nostoc PCC 7120) (UniProt P27709)
T1 sequence: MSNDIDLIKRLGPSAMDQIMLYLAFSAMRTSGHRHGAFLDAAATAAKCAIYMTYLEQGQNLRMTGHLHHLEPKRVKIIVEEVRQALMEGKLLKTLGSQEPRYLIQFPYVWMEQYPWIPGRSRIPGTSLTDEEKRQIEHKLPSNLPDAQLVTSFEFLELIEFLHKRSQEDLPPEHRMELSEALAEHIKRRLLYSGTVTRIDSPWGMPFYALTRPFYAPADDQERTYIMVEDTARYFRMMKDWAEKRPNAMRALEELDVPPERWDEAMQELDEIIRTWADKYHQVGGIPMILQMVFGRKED

[2] = target: T2, HetR S127A S127A (Nostoc PCC 7120) (UniProt P27709)
T2 sequence: T1 sequence with S127A, D130S

[3] = target: T3, HetR S130A S130A (Nostoc PCC 7120) (UniProt P27709)
T3 sequence: T1 sequence with D130A

[4] = target: T4, HetR S179A S179A (Nostoc PCC 7120) (UniProt P27709)
T4 sequence: T1 sequence with D130S, S179A

TGAGTTATACGCTATATCAATGGGGATTTTGAGCATTTTCTACTAGGTAATGAGGGGTTAGACCCCTCGCCTACTGTGCATTTGAGACTTTAAACCTACTAAGAGAATTTACCACTAAAT (double strand) [hetP promoter]
binding [1]: binds | binding [2]: binds | binding [3]: binds | binding [4]: no binding

Source: article PMC6985446
